Source: US20010010923A1, “MODIFIED CARBOXYPEPTIDASE” (priority 1997, published 2001)
Marks after values point to notes of the source that are not given here.

B1: T60A + M398L: carboxypeptidase Y double substitution mutant T60A + M398L (protein, UniProt P00729 112-532, looked up, variant T60A M398L)
Carboxypeptidase Y: KIKDPKILGIDPNVTQYTGYLDVEDEDKHFFFWTFESRNDPAKDPVILWLNGGPGCSSLAGLFFELGPSSIGPDLKPIGNPYSWNSNATVIFLDQPVNVGFSYSGSSGVSNTVAAGKDVYNFLELFFDQFPEYVNKGQDFHIAGESYAGHYIPVFASEILSHKDRNFNLTSVLIGNGLTDPLTQYNYYEPMACGEGGEPSVLPSEECSAMEDSLERCLGLIESCYDSQSVWSCVPATIYCNNAQLAPYQRTGRNVYDIRKDCEGGNLCYPTLQDIDDYLNQDYVKEAVGAEVDHYESCNFDINRNFLFAGDWMKPYHTAVTDLLNQDLPILVYAGDKDFICNWLGNKAWTDVLPWKYDEEFASQKVRNWTASITDEVAGEVKSYKHFTYLRVFNGGHLVPFDVPENALSMVNEWIHGGFSL
B2: T60A + M398Y: carboxypeptidase Y double substitution mutant T60A + M398Y (protein, UniProt P00729 112-532, looked up, variant T60A M398Y)
Carboxypeptidase Y: KIKDPKILGIDPNVTQYTGYLDVEDEDKHFFFWTFESRNDPAKDPVILWLNGGPGCSSLAGLFFELGPSSIGPDLKPIGNPYSWNSNATVIFLDQPVNVGFSYSGSSGVSNTVAAGKDVYNFLELFFDQFPEYVNKGQDFHIAGESYAGHYIPVFASEILSHKDRNFNLTSVLIGNGLTDPLTQYNYYEPMACGEGGEPSVLPSEECSAMEDSLERCLGLIESCYDSQSVWSCVPATIYCNNAQLAPYQRTGRNVYDIRKDCEGGNLCYPTLQDIDDYLNQDYVKEAVGAEVDHYESCNFDINRNFLFAGDWMKPYHTAVTDLLNQDLPILVYAGDKDFICNWLGNKAWTDVLPWKYDEEFASQKVRNWTASITDEVAGEVKSYKHFTYLRVFNGGHYVPFDVPENALSMVNEWIHGGFSL
B3: T60D + M398L: carboxypeptidase Y double substitution mutant T60D + M398L (protein, UniProt P00729 112-532, looked up, variant T60D M398L)
Carboxypeptidase Y: KIKDPKILGIDPNVTQYTGYLDVEDEDKHFFFWTFESRNDPAKDPVILWLNGGPGCSSLDGLFFELGPSSIGPDLKPIGNPYSWNSNATVIFLDQPVNVGFSYSGSSGVSNTVAAGKDVYNFLELFFDQFPEYVNKGQDFHIAGESYAGHYIPVFASEILSHKDRNFNLTSVLIGNGLTDPLTQYNYYEPMACGEGGEPSVLPSEECSAMEDSLERCLGLIESCYDSQSVWSCVPATIYCNNAQLAPYQRTGRNVYDIRKDCEGGNLCYPTLQDIDDYLNQDYVKEAVGAEVDHYESCNFDINRNFLFAGDWMKPYHTAVTDLLNQDLPILVYAGDKDFICNWLGNKAWTDVLPWKYDEEFASQKVRNWTASITDEVAGEVKSYKHFTYLRVFNGGHLVPFDVPENALSMVNEWIHGGFSL
B4: T60C: carboxypeptidase Y S1' mutant, substitution T60C (protein, UniProt P00729 112-532, looked up, variant T60C)
Carboxypeptidase Y: KIKDPKILGIDPNVTQYTGYLDVEDEDKHFFFWTFESRNDPAKDPVILWLNGGPGCSSLCGLFFELGPSSIGPDLKPIGNPYSWNSNATVIFLDQPVNVGFSYSGSSGVSNTVAAGKDVYNFLELFFDQFPEYVNKGQDFHIAGESYAGHYIPVFASEILSHKDRNFNLTSVLIGNGLTDPLTQYNYYEPMACGEGGEPSVLPSEECSAMEDSLERCLGLIESCYDSQSVWSCVPATIYCNNAQLAPYQRTGRNVYDIRKDCEGGNLCYPTLQDIDDYLNQDYVKEAVGAEVDHYESCNFDINRNFLFAGDWMKPYHTAVTDLLNQDLPILVYAGDKDFICNWLGNKAWTDVLPWKYDEEFASQKVRNWTASITDEVAGEVKSYKHFTYLRVFNGGHMVPFDVPENALSMVNEWIHGGFSL
B5: T60D + M398Y: carboxypeptidase Y double substitution mutant T60D + M398Y (protein, UniProt P00729 112-532, looked up, variant T60D M398Y)
Carboxypeptidase Y: KIKDPKILGIDPNVTQYTGYLDVEDEDKHFFFWTFESRNDPAKDPVILWLNGGPGCSSLDGLFFELGPSSIGPDLKPIGNPYSWNSNATVIFLDQPVNVGFSYSGSSGVSNTVAAGKDVYNFLELFFDQFPEYVNKGQDFHIAGESYAGHYIPVFASEILSHKDRNFNLTSVLIGNGLTDPLTQYNYYEPMACGEGGEPSVLPSEECSAMEDSLERCLGLIESCYDSQSVWSCVPATIYCNNAQLAPYQRTGRNVYDIRKDCEGGNLCYPTLQDIDDYLNQDYVKEAVGAEVDHYESCNFDINRNFLFAGDWMKPYHTAVTDLLNQDLPILVYAGDKDFICNWLGNKAWTDVLPWKYDEEFASQKVRNWTASITDEVAGEVKSYKHFTYLRVFNGGHYVPFDVPENALSMVNEWIHGGFSL
B6: T60Y + M398L: carboxypeptidase Y double substitution mutant T60Y + M398L (protein, UniProt P00729 112-532, looked up, variant T60Y M398L)
Carboxypeptidase Y: KIKDPKILGIDPNVTQYTGYLDVEDEDKHFFFWTFESRNDPAKDPVILWLNGGPGCSSLYGLFFELGPSSIGPDLKPIGNPYSWNSNATVIFLDQPVNVGFSYSGSSGVSNTVAAGKDVYNFLELFFDQFPEYVNKGQDFHIAGESYAGHYIPVFASEILSHKDRNFNLTSVLIGNGLTDPLTQYNYYEPMACGEGGEPSVLPSEECSAMEDSLERCLGLIESCYDSQSVWSCVPATIYCNNAQLAPYQRTGRNVYDIRKDCEGGNLCYPTLQDIDDYLNQDYVKEAVGAEVDHYESCNFDINRNFLFAGDWMKPYHTAVTDLLNQDLPILVYAGDKDFICNWLGNKAWTDVLPWKYDEEFASQKVRNWTASITDEVAGEVKSYKHFTYLRVFNGGHLVPFDVPENALSMVNEWIHGGFSL
B7: T60F: carboxypeptidase Y S1' mutant, substitution T60F (protein, UniProt P00729 112-532, looked up, variant T60F)
Carboxypeptidase Y: KIKDPKILGIDPNVTQYTGYLDVEDEDKHFFFWTFESRNDPAKDPVILWLNGGPGCSSLFGLFFELGPSSIGPDLKPIGNPYSWNSNATVIFLDQPVNVGFSYSGSSGVSNTVAAGKDVYNFLELFFDQFPEYVNKGQDFHIAGESYAGHYIPVFASEILSHKDRNFNLTSVLIGNGLTDPLTQYNYYEPMACGEGGEPSVLPSEECSAMEDSLERCLGLIESCYDSQSVWSCVPATIYCNNAQLAPYQRTGRNVYDIRKDCEGGNLCYPTLQDIDDYLNQDYVKEAVGAEVDHYESCNFDINRNFLFAGDWMKPYHTAVTDLLNQDLPILVYAGDKDFICNWLGNKAWTDVLPWKYDEEFASQKVRNWTASITDEVAGEVKSYKHFTYLRVFNGGHMVPFDVPENALSMVNEWIHGGFSL
B8: T60Y + M398Y: carboxypeptidase Y double substitution mutant T60Y + M398Y (protein, UniProt P00729 112-532, looked up, variant T60Y M398Y)
Carboxypeptidase Y: KIKDPKILGIDPNVTQYTGYLDVEDEDKHFFFWTFESRNDPAKDPVILWLNGGPGCSSLYGLFFELGPSSIGPDLKPIGNPYSWNSNATVIFLDQPVNVGFSYSGSSGVSNTVAAGKDVYNFLELFFDQFPEYVNKGQDFHIAGESYAGHYIPVFASEILSHKDRNFNLTSVLIGNGLTDPLTQYNYYEPMACGEGGEPSVLPSEECSAMEDSLERCLGLIESCYDSQSVWSCVPATIYCNNAQLAPYQRTGRNVYDIRKDCEGGNLCYPTLQDIDDYLNQDYVKEAVGAEVDHYESCNFDINRNFLFAGDWMKPYHTAVTDLLNQDLPILVYAGDKDFICNWLGNKAWTDVLPWKYDEEFASQKVRNWTASITDEVAGEVKSYKHFTYLRVFNGGHYVPFDVPENALSMVNEWIHGGFSL

Columns and labels:
[1] = Transpeptidation of FA-Ala-Xaa-OH with H-Gly-NH2, Table 2; assay type: biochemical; details: for Fraction of aminolysis (fa), P1' Ala: FA-Ala-Ala-OH 0.2 mM; for Fraction of aminolysis (fa), P1' Ala / Fraction of aminolysis (fa), P1' Leu / Fraction of aminolysis (fa), P1' Met / Fraction of aminolysis (fa), P1' Phe / Fraction of aminolysis (fa), P1' Val: 1.9 M H-Gly-NH2, pH 7.5, room temperature; for Fraction of aminolysis (fa), P1' Leu: FA-Ala-Leu-OH 0.2 mM; for Fraction of aminolysis (fa), P1' Met: FA-Ala-Met-OH 0.2 mM; for Fraction of aminolysis (fa), P1' Phe: FA-Ala-Phe-OH 0.2 mM; for Fraction of aminolysis (fa), P1' Val: FA-Ala-Val-OH 0.2 mM; for fraction of aminolysis compared to wild type, in words: larger, hydrophobic leaving group such as leucine
Procedure, shortened: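 Enzyme reacted with 0.2 mM peptide substrate and nucleophile in 50 mM HEPES, 5 mM EDTA, pH 7.5; aliquots quenched in 1% TFA. Products quantified by reverse-phase HPLC at 254 nm at two conversion points (20-50% and 50-90% substrate consumed). Fraction of aminolysis = aminolysis product over all products, ignoring unconsumed substrate.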

[2] = Transpeptidation of FA-Ala-OBzl with H-Leu-NH2, Table 3; assay type: biochemical; details: FA-Ala-OBzl 0.2 mM, pH 7.5; for fa: H-Leu-NH2; for KN(app): nucleophile H-Leu-NH2 concentration at which fa is half of maximum
Procedure, shortened: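 Site-directed mutant enzymes were reacted with H-Leu-NH2 in 50 mM HEPES, 5 mM EDTA, pH 7.5, with acyl-donor substrate at 0.2 mM final. Products were quantified by C-18 RP-HPLC at 254 nm at about 35% and 80% substrate consumption. fa is aminolysis product over all products; famax is fa at nucleophile saturation, and KN(app) is the nucleophile concentration giving famax/2.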

Row | Molecule | Fraction of aminolysis (fa), P1' Ala [1] | Fraction of aminolysis (fa), P1' Leu [1] | Fraction of aminolysis (fa), P1' Met [1] | Fraction of aminolysis (fa), P1' Phe [1] | Fraction of aminolysis (fa), P1' Val [1] | fraction of aminolysis compared to wild type, in words [1] | fa [2] | KN(app) [2]
1 | B1 | 0.92 | 0.94 | 0.72 | 0.52 | 0.91 | further improved the fraction of aminolysis | 0.99^a | 1.0^b mM
2 | B2 | 0.80 | 0.83 | 0.83 | 0.81 | 0.81 | further improved the fraction of aminolysis | 0.97^a | 9.1^b mM
3 | B3 | 0.89 | 0.89 | 0.66 | 0.62 | 0.90 | further improved the fraction of aminolysis | 1.0^a | 2.0^b mM
4 | B4 | 0.92 | 0.19 | 0.15 | 0.08 | 0.27 |  | 0.98^a | 
5 | B5 | 0.70 | 0.75 | 0.72 | 0.56 | 0.71 | further improved the fraction of aminolysis | 0.89^a | 9.2^c mM
6 | B6 | 0.92 | 0.95 | 0.93 | 0.87 | 0.89 | further improved the fraction of aminolysis | 1.0^a | 1.7^c mM
7 | B7 | 0.85 | 0.17 | 0.21 | 0.12 | 0.15 |  | 0.98^a | 
8 | B8 | 0.74 | 0.77 | 0.76 | 0.75 | 0.74 | further improved the fraction of aminolysis | 0.99^a | 5.4^b mM
